The text below walks through data of PMC8119208 (JCI Insight, 2021).

This assay addresses T1, GST-tagged PTP1B, full length (UniProt P18031 1-435).
T1 construct: protein tyrosine phosphatase PTP1B (PTPN1), full-length cDNA subcloned into pGEX-4T1; The cDNA probably comes from pJ3H PTP1B (Addgene 8601); also called GST-PTP1B; source: E. coli, purified (glutathione resin)
T1 sequence (looked up): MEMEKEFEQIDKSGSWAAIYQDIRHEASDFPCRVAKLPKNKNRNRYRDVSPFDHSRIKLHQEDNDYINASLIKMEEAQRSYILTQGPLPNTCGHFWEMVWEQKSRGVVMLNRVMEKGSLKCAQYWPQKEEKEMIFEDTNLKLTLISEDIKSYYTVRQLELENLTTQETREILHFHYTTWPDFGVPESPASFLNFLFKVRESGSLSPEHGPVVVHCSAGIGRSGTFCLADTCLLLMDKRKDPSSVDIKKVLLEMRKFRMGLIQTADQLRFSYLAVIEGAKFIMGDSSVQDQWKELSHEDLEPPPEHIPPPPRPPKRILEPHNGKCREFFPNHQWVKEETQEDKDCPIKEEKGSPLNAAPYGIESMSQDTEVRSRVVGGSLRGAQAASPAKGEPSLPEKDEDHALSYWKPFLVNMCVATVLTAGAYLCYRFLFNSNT
Put plainly: pull-down; GST pull-down with purified proteins from E. coli: His-PDL1-CT / MBP-PDL1-CT (0.5 μg) and 0.5 μg GST or GST-fusion proteins. The following applies: both partners purified.

B1: MBP-tagged PD-L1 cytoplasmic domain (domain or fragment, human, UniProt Q9NZQ7 262-290, looked up)
chain: RKGRMMDVKKCGIQDTNSKKQSDTHLEET
notes: PD-L1 cytoplasmic domain, human, amino acids 262-290, subcloned into pET-His6 (Addgene plasmid 29656; named in the acknowledgements as PET His6 MBP TEV LIC cloning vector); The results and legend call it MBP-PDL1-CT, the methods of the pull-down His-PDL1-CT; also called MBP-PDL1-CT; His-PDL1-CT; source: E. coli, purified (His resin)
As to B1, the binding result is on record as “binds”.
